In the RNAGym collection of RNA variant scans (doi:10.1093/nar/gkz1192):

B1: CPEB3 Ribozyme (parent)
chain: UAACAGGGGGCCACAGCAGAAGCGUUCACGUCGCAGCCCCUGUCAGAUUCUGGUGAAUCUGCGAAUUCUGCUGUAUAUCUC

Variants of: B1
Assay: self-cleavage, relative activity (ratio to wild type); higher = more cleavage; in vitro, sequencing
Summary of the method: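 Relative activity compares each variant's cleaved/total read fraction with that of the unmutated ribozyme. To get these fractions, barcoded CPEB3 ribozyme libraries from rounds of error-prone PCR were transcribed with T7 RNA polymerase for 5 hours at 37°C and then given 15 min of DNase I treatment before EDTA was added. The RNAs were reverse transcribed with template switching and sequenced on Illumina, and DNA sequencing linked barcodes to variants. A minimum of 5 reads applied, and three batches were averaged.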
Work on A35C U49C yielded a self-cleavage of 0.4.
Work on G33U U43C yielded a self-cleavage of 0.48.
G33A U72G showed a self-cleavage of 0.24.
G33A U72A showed a self-cleavage of 0.23.
G33A U72C showed a self-cleavage of 0.26.
Work on C34A U69C yielded a self-cleavage of 0.07.
C34A U69A gave a self-cleavage of 0.07.
A35C A75G showed a self-cleavage of 0.87.
A35C A75U showed a self-cleavage of 0.97.
A35C U51C gave a self-cleavage of 0.79.
Work on A35C U51A yielded a self-cleavage of 1.
C34G A75G showed a self-cleavage of 0.15.
In the case of G33C A57G, the self-cleavage is reported as 0.13.
Variant G33C A35G has a self-cleavage of 0.22.
In the case of G33C A35U, the self-cleavage is reported as 0.14.
G33A U78C showed a self-cleavage of 0.2.
Work on G33A U78A yielded a self-cleavage of 0.04.
For C34U G52U, the self-cleavage was 0.33.
With G33A C50U the self-cleavage was 0.1.
With G33A C50G the self-cleavage was 0.22.
C34A A64G gave a self-cleavage of 0.14.
In the case of A35C A65G, the self-cleavage is reported as 0.34.
G33C U78A showed a self-cleavage of 0.08.
For G33C U78C, the self-cleavage was 0.09.
In the case of C34G U67C, the self-cleavage is reported as 0.13.
With G33U A65U the self-cleavage was 0.13.
In the case of G33U A65G, the self-cleavage is reported as 0.43.
Work on C34A U78A yielded a self-cleavage of 0.16.
For C34A U78C, the self-cleavage was 0.32.
For G33A G70C, the self-cleavage was 0.26.
Work on G33A G70U yielded a self-cleavage of 0.71.
C34G U66C gave a self-cleavage of 0.23.
With G33U A35U the self-cleavage was 0.15.
Variant A35C C38A has a self-cleavage of 0.2.
With G33C U76C the self-cleavage was 0.12.
For A35C A45C, the self-cleavage was 0.31.
A35C A45U gave a self-cleavage of 0.24.
G33A U60C gave a self-cleavage of 0.24.
Work on G33A U60A yielded a self-cleavage of 0.15.
Variant C34U A45C has a self-cleavage of 0.17.
In the case of C34U A45G, the self-cleavage is reported as 0.34.
In the case of G33A U41C, the self-cleavage is reported as 0.39.
G33A U41A showed a self-cleavage of 0.41.
G33U A56G showed a self-cleavage of 0.29.
In the case of G33U A56U, the self-cleavage is reported as 0.42.
Variant G33A C79A has a self-cleavage of 0.23.
With G33A U69G the self-cleavage was 0.16.
Work on G33A U69C yielded a self-cleavage of 0.27.
G33A C68G gave a self-cleavage of 0.11.
Work on G33A C68U yielded a self-cleavage of 0.19.
Variant A35G A57U has a self-cleavage of 1.22.
A35G A57G gave a self-cleavage of 1.27.
With C34U U41A the self-cleavage was 0.4.
With C34U U41C the self-cleavage was 0.5.
For C34U U41G, the self-cleavage was 0.12.
A35G A65C gave a self-cleavage of 0.67.
Work on A35G A65G yielded a self-cleavage of 1.19.
Work on A35G A65U yielded a self-cleavage of 0.96.
G33C U69A showed a self-cleavage of 0.07.
For G33C U69C, the self-cleavage was 0.13.
With G33A U54C the self-cleavage was 0.15.
With G33A U54A the self-cleavage was 0.18.
G33U U51C showed a self-cleavage of 0.09.
G33U U51G gave a self-cleavage of 0.09.
Variant G33A U58C has a self-cleavage of 0.08.
In the case of G33A C59U, the self-cleavage is reported as 0.24.
For C34U G70A, the self-cleavage was 0.14.
A35G C39A showed a self-cleavage of 0.95.
A35G C39G showed a self-cleavage of 0.59.
For A35G C39U, the self-cleavage was 1.21.
For C34A U80G, the self-cleavage was 0.33.
In the case of C34A U80C, the self-cleavage is reported as 0.34.
In the case of G33C A56U, the self-cleavage is reported as 0.14.
Work on G33C A56G yielded a self-cleavage of 0.12.
Work on C34A A57G yielded a self-cleavage of 0.35.
In the case of C34A U66C, the self-cleavage is reported as 0.46.
Work on G33A C40U yielded a self-cleavage of 0.38.
C34A C44U showed a self-cleavage of 0.08.
A35C U69G gave a self-cleavage of 0.62.
For A35C U69C, the self-cleavage was 0.46.
In the case of A35C U69A, the self-cleavage is reported as 0.53.
With G33A G63U the self-cleavage was 0.1.
With G33A G63A the self-cleavage was 0.14.
In the case of A35C A57G, the self-cleavage is reported as 0.93.
A35C A57C gave a self-cleavage of 0.28.
With G33A U49C the self-cleavage was 0.28.
G33A U49A gave a self-cleavage of 0.29.
A35G A77C gave a self-cleavage of 1.27.
Work on A35G A77U yielded a self-cleavage of 1.28.
Variant A35G A77G has a self-cleavage of 1.39.
For C34G U78A, the self-cleavage was 0.26.
With C34G U78C the self-cleavage was 0.22.
With C34U G61U the self-cleavage was 0.19.
Variant C34G U80C has a self-cleavage of 0.24.
For G33C A75G, the self-cleavage was 0.18.
G33U U41C gave a self-cleavage of 0.25.
Work on G33U U41A yielded a self-cleavage of 0.18.
G33C A65C gave a self-cleavage of 0.1.
Variant G33C A65G has a self-cleavage of 0.18.
With C34G A35G the self-cleavage was 0.86.
With G33C U48A the self-cleavage was 0.15.
Work on G33C U48C yielded a self-cleavage of 0.44.
For C34U U51A, the self-cleavage was 0.34.
For C34U U51G, the self-cleavage was 0.54.
For C34G U72C, the self-cleavage was 0.22.
In the case of C34G U72A, the self-cleavage is reported as 0.08.
Variant C34G U72G has a self-cleavage of 0.15.
G33C U67C showed a self-cleavage of 0.12.
Work on G33C U67A yielded a self-cleavage of 0.17.
In the case of G33U U48C, the self-cleavage is reported as 0.08.
Variant G33U A75U has a self-cleavage of 0.81.
In the case of C34G U76G, the self-cleavage is reported as 0.32.
Work on C34U A47C yielded a self-cleavage of 0.41.
For C34U A47U, the self-cleavage was 0.17.
In the case of C34U A47G, the self-cleavage is reported as 0.43.
G33C A45U showed a self-cleavage of 0.17.
With G33C A45G the self-cleavage was 0.23.
Variant C34G U69A has a self-cleavage of 0.3.
For C34G U69C, the self-cleavage was 0.21.
For G33A G42U, the self-cleavage was 0.39.
For A35G A47G, the self-cleavage was 1.26.
In the case of A35G A47C, the self-cleavage is reported as 1.3.
In the case of A35G A47U, the self-cleavage is reported as 1.16.
C34A A65G showed a self-cleavage of 0.26.
For G33U G46A, the self-cleavage was 0.44.
With G33C U41A the self-cleavage was 0.16.
C34A A35G showed a self-cleavage of 1.07.
For A35C A47G, the self-cleavage was 0.81.
For A35C A47U, the self-cleavage was 0.63.
Variant G33U U66A has a self-cleavage of 0.16.
G33U U66C showed a self-cleavage of 0.13.
C34A U60C gave a self-cleavage of 0.14.
C34A U41G gave a self-cleavage of 0.39.
In the case of G33A U66C, the self-cleavage is reported as 0.31.
In the case of G33A U66A, the self-cleavage is reported as 0.18.
With C34U C68U the self-cleavage was 0.3.
With C34U U80C the self-cleavage was 0.58.
For C34U U80G, the self-cleavage was 0.27.
Variant C34U U80A has a self-cleavage of 0.51.
A35C C81U gave a self-cleavage of 0.93.
In the case of A35C G61A, the self-cleavage is reported as 0.41.
With A35C A77U the self-cleavage was 1.07.
With C34G C59G the self-cleavage was 0.14.
C34G C59A gave a self-cleavage of 0.18.
With G33C U49C the self-cleavage was 0.12.
A35G A64G gave a self-cleavage of 1.28.
A35G A64U showed a self-cleavage of 1.12.
Variant A35G A64C has a self-cleavage of 0.98.
G33U showed a self-cleavage of 0.24.
Work on G33C yielded a self-cleavage of 0.23.
With C34U G63A the self-cleavage was 0.27.
With C34U G63U the self-cleavage was 0.38.
For A35C C50A, the self-cleavage was 0.92.
A35C U54C gave a self-cleavage of 0.8.
In the case of G33U C38A, the self-cleavage is reported as 0.2.
G33U C38U gave a self-cleavage of 0.36.
G33A U74A gave a self-cleavage of 0.33.
Work on G33A U74C yielded a self-cleavage of 0.57.
For G33U U76C, the self-cleavage was 0.32.
A35G A56G showed a self-cleavage of 1.27.
Work on A35G A56U yielded a self-cleavage of 1.24.
Work on A35G A56C yielded a self-cleavage of 1.27.
Work on G33C U60G yielded a self-cleavage of 0.12.
Variant G33C U60A has a self-cleavage of 0.25.
G33C U60C gave a self-cleavage of 0.11.
With C34A G46U the self-cleavage was 0.15.
Variant C34A U74G has a self-cleavage of 0.29.
